For one molecule, Kd results are on record in publication PMC4252486.

Common to all, as to test: fluorescence anisotropy
(In general: In fluorescence polarisation assays a small probe gives low polarisation when free and higher when bound to something large.)

One data set concerns the target NCp9 (NCp7-SP2) (HIV-1 NL4-3, UniProt P12493 378-448).
The target of data set [1] is NCp7 (mature nucleocapsid) (HIV-1 NL4-3, UniProt P12493 378-432).
The target of the next data set is NCp15 WT (NCp7-SP2-p6) (HIV-1 NL4-3, UniProt P12493 378-500).

By Kd is commonly meant the concentration at which binding is half-saturated. Read a low Kd as tighter binding.

For the molecule AGCTGCTTTTTGCCTGTACT (ssDNA) [JL936 (20-nt ssDNA)], the figures for the Kd (with NCp9 (NCp7-SP2); in data set [1]; with NCp15 WT (NCp7-SP2-p6)) were 45 nM, 176 nM and 151 nM, respectively.
